# Laboratory results from IntAct's records for PubMed 19074269.
# B1: Basic leucine zipper transcriptional factor ATF-like 2 (Homo sapiens), Q8N1L9-1 (parent)
# chain: MHLCGGNGLLTQTDPKEQQRQLKKQKNRAAAQRSRQKHTDKADALHQQHESLEKDNLALRKEIQSLQAELAWWSRTLHVHERLCPMDCASCSAPGLLGCWDQAEGLLGPGPQGQHGCREQLELFQTPGSCYPAQPLSPGPQPHDSPSLLQCPLPSLSLGPAVVAEPPVQLSPSPLLFASHTGSSLQGSSSKLSALQPSLTAQTAPPQPLELEHPTRGKLGSSPDNPSSALGLARLQSREHKPALSAATWQGLVVDPSPHPLLAFPLLSSAQVHF
# Variants of: B1
# Settings: with jun_human JUN
row,effect of a mutation on the interaction,Variant
1,disrupting interaction,MHLCGGNGLLTQTDPKEQQRQLKKQKNRAAAQRSRQKHTDKADALHQQHESLEKDNLAPRKEIQSLQAELAWWSRTLHVHERLCPMDCASCSAPGLLGCWDQAEGLLGPGPQGQHGCREQLELFQTPGSCYPAQPLSPGPQPHDSPSLLQCPLPSLSLGPAVVAEPPVQLSPSPLLFASHTGSSLQGSSSKLSALQPSLTAQTAPPQPLELEHPTRGKLGSSPDNPSSALGLARLQSREHKPALSAATWQGLVVDPSPHPLLAFPLLSSAQVHF [L59P]
